Results taken from publication PMC11803495.

Tests used:
[1] = target: T1, MBP-dPPR-nad7-DYW (synthetic construct (13 P-type PPR …)); assay: EMSA
T1 chain: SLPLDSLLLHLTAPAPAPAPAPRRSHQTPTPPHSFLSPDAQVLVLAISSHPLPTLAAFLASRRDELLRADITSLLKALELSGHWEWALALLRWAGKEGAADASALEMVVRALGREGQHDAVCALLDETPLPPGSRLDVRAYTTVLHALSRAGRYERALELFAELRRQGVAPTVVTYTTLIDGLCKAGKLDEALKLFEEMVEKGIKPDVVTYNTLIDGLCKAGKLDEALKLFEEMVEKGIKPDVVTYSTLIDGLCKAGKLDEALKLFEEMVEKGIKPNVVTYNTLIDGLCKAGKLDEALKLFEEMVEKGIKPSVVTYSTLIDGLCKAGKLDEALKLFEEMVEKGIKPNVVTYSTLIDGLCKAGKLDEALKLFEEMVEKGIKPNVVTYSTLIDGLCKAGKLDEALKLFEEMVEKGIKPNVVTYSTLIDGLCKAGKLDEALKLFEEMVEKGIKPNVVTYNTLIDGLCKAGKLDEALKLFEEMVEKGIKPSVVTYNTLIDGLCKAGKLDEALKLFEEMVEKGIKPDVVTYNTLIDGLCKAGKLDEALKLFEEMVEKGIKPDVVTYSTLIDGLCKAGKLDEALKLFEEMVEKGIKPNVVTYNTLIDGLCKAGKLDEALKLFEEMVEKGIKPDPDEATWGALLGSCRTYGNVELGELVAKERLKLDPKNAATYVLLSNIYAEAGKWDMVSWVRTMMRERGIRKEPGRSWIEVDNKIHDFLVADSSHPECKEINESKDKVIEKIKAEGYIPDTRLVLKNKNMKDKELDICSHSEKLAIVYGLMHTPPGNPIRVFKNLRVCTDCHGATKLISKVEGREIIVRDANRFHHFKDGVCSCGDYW

[2] = target: T2, MBP-dPPR-nad7-Δ (synthetic construct (13 P-type PPR …)); assay: EMSA
T2 chain: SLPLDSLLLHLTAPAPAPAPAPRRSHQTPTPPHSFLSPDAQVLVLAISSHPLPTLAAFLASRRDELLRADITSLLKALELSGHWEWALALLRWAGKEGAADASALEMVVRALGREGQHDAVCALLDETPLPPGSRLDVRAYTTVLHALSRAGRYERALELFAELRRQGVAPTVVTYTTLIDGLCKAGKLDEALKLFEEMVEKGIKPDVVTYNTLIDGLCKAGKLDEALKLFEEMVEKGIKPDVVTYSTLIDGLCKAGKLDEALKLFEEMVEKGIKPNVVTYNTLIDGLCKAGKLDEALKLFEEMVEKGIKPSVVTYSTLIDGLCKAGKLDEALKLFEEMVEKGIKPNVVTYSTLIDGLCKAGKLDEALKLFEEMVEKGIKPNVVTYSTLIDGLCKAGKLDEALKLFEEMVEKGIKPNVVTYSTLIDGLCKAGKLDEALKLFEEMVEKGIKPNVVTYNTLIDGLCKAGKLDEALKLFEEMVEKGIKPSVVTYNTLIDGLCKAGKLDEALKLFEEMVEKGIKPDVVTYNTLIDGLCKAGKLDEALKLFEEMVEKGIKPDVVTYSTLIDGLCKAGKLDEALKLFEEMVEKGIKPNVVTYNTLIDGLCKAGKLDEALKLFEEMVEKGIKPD

Q: Does CUUUUGAAUUGCGAGGUACCAUUACGAG (ssRNA) [nad7 control] bind [1]?
A: Result: no binding

Q: Does CUUUUGAAUUGCGAGGUACCAUUACGAG (ssRNA) [nad7 control] bind [2]?
A: Result: no binding
